Assays:
Assay in all cases: cell-based or functional assay
[1] = target: HIV-1 Env of isolate MGRM-G-024 (subtype G) (HIV-1)
[2] = target: HIV-1 MGRM-AG-013 Env (pseudovirus) (HIV-1)
[3] = target: HIV-1 Env of isolate 92UG031 (clade A pseudovirus) (HIV-1)
[4] = target: HIV-1 Env of isolate MGRM-D-011 (clade D pseudovirus) (HIV-1)
[5] = target: HIV-1 IAVI-C18 envelope (Env) on pseudovirus (HIV-1)
[6] = target: HIV-1 envelope glycoprotein (Env) of isolate MGRM-C-025 (HIV-1)
[7] = target: HIV-1 Env of isolate 94KE105 (listed under clade A; pseudovirus) (HIV-1)
[8] = target: HIV-1 Env of isolate 94UG103 (Clade A) (HIV-1)
[9] = target: HIV-1 envelope glycoprotein (Env) of isolate MGRM-C-010 (HIV-1)
[10] = target: HIV-1 envelope glycoprotein (Env) of isolate MGRM-C-015 (HIV-1)
[11] = target: HIV-1 CMU02 Env (pseudovirus) (HIV-1)
[12] = target: HIV-1 92UG024 envelope protein (Env) on pseudovirus (HIV-1)
[13] = target: HIV-1 Env of isolate MGRM-A-007 (clade A pseudovirus) (HIV-1)
[14] = target: HIV-1 Env of isolate MGRM-AG-002 (pseudovirus) (HIV-1)
[15] = target: HIV-1 Env of isolate 92TH021 (CRF01_AE) (HIV-1)
[16] = target: HIV-1 Env of isolate MGRM-AG-013 (pseudovirus) (HIV-1)
[17] = target: HIV-1 92TH021 envelope (Env) on pseudovirus (HIV-1)
[18] = target: HIV-1 Env of isolate SC422661.8 (Acute), clade B (HIV-1)
[19] = target: HIV-1 Env of isolate 92TH021 (pseudovirus) (HIV-1)
[20] = target: HIV-1 Env of isolate 93UG077 (clade A pseudovirus) (HIV-1)
[21] = target: HIV-1 NL43 envelope (Env) on pseudovirus (HIV-1)
[22] = target: HIV-1 envelope glycoprotein (Env) of isolate 93TH305, on pseudovirus (HIV-1)
[23] = target: HIV-1 envelope glycoprotein (Env) of isolate 92UG037, subtype A (HIV-1)
[24] = target: HIV-1 JR-CSF Env T394A (HIV-1 (isolate JR-CSF)) (UniProt P20871)
[25] = target: HIV-1 Env of isolate MGRM-AG-003 (pseudovirus) (HIV-1)
[26] = target: HIV-1 envelope glycoprotein (Env) of isolate MG RM-A-013, subtype A (HIV-1)
[27] = target: HIV-1 envelope glycoprotein (Env) of isolate MGRM-Chronic-B-023, on pseudovirus (HIV-1)
[28] = target: HIV-1 envelope glycoprotein (Env) of isolate MG RM-A-003, subtype A (HIV-1)
[29] = target: HIV-1 Env of isolate MGRM-AG-006 (pseudovirus) (HIV-1)
[30] = target: HIV-1 envelope glycoprotein (Env) of isolate MGRM-AE-001, subtype AE (HIV-1)
[31] = target: HIV-1 Env of isolate MGRM-F1-020 (pseudovirus) (HIV-1)
[32] = target: HIV-1 Env of isolate CMU02 (pseudovirus) (HIV-1)

Substance | IC50 (µg/ml), pseudovirus neutralization [2] [µg/mL] | IC50 (µg/ml), pseudovirus neutralization [3] [µg/mL] | IC50, pseudovirus neutralization [4] [µg/mL] | neutralization IC50 [5] [µg/mL] | IC50 (µg/ml), pseudovirus neutralization [6] [µg/mL] | IC50 (µg/ml), pseudovirus neutralization [7] [µg/mL] | IC90 (neutralization of pseudovirus) [8] [µg/mL] | IC50 (µg/ml), pseudovirus neutralization [9] [µg/mL] | IC50 (µg/ml), pseudovirus neutralization [10] [µg/mL] | IC50 (µg/ml), pseudovirus neutralization [11] [µg/mL] | IC50 (ug/mL), pseudovirus neutralization [12] [µg/mL] | IC50 (µg/ml), pseudovirus neutralization [13] [µg/mL] | IC50 (µg/mL), pseudovirus neutralization [14] [µg/mL] | IC90 (neutralization of pseudovirus) [15] [µg/mL] | IC50 (µg/mL), pseudovirus neutralization [16] [µg/mL] | neutralization IC50 [17] [µg/mL] | IC50 (µg/ml), pseudovirus neutralization [18] [µg/mL] | IC50 (µg/ml), pseudovirus neutralization [20] [µg/mL] | neutralization IC50 [21] [µg/mL] | IC50, pseudovirus neutralization [22] [µg/mL] | also measured
1496_C09 (PG9) (TCN-109) (antibody) | 0.23 | 3.08 | 0.06 | 0.0535 | 0.17 | 29.6 | 3.37 | 12.4 | 0.5 | 7.69 | 1.91 | 0.37 | 0.076 | 1.99 | 0.259 | 0.111 | 0.79 |  |  |  | IC50 (µg/mL), pseudovirus neutralization [1]: 0.163 µg/mL; IC50 (µg/mL), pseudovirus neutralization [19]: 0.059 µg/mL
2F5 (antibody) | 1.79 | 3.81 | > 50 | > 50 | > 50 | > 50 | 46.6 | > 50 | > 50 | 0.6 |  | 16.3 |  | 18.8 |  | 1.51 | > 50 | 3.3 | 2.41 |  | 
5145_B14 (PGT-127) (antibody) |  |  |  |  |  |  |  |  |  |  |  |  | > 50 |  | 0.018 |  |  |  |  | 0.017 | IC50, pseudovirus neutralization [23]: 0.014 µg/mL; Fold IC50 increase relative to wild-type (pseudovirus neutralization) [24]: 1.6 fold; IC50 (µg/mL), pseudovirus neutralization [25]: > 50 µg/mL; IC50, pseudovirus neutralization [26]: 0.029 µg/mL; IC50, pseudovirus neutralization [27]: > 50 µg/mL; IC50, pseudovirus neutralization [28]: > 50 µg/mL; IC50 (µg/mL), pseudovirus neutralization [29]: 0.021 µg/mL; IC50, pseudovirus neutralization [30]: > 50 µg/mL; IC50 (µg/mL), pseudovirus neutralization [31]: > 50 µg/mL
1495_C14 (PGC14) (antibody) | > 50 | > 50 | > 50 | > 50 | > 50 | > 50 |  | > 50 | > 50 | > 50 |  | > 50 |  |  |  | > 50 | > 50 | > 50 | 0.373 |  | 
5141_B17 (PGT-126) (antibody) |  |  |  |  |  |  |  |  |  |  | > 10 |  | > 50 |  | 0.008 |  |  |  |  | 0.013 | IC50, pseudovirus neutralization [23]: 0.011 µg/mL; Fold IC50 increase relative to wild-type (pseudovirus neutralization) [24]: 0.6 fold; IC50 (µg/mL), pseudovirus neutralization [25]: > 50 µg/mL; IC50, pseudovirus neutralization [26]: 0.006 µg/mL; IC50, pseudovirus neutralization [27]: > 50 µg/mL; IC50, pseudovirus neutralization [28]: > 50 µg/mL; IC50 (µg/mL), pseudovirus neutralization [29]: 0.01 µg/mL; IC50, pseudovirus neutralization [30]: 9.68 µg/mL; IC50 (µg/mL), pseudovirus neutralization [31]: > 50 µg/mL
4858_P08 (PGT-123) (antibody) |  |  |  |  |  |  |  |  |  |  | > 10 |  | > 50 |  | 3.37 |  |  |  |  | 0.008 | IC50, pseudovirus neutralization [23]: 0.023 µg/mL; Fold IC50 increase relative to wild-type (pseudovirus neutralization) [24]: 0.4 fold; IC50 (µg/mL), pseudovirus neutralization [25]: > 50 µg/mL; IC50, pseudovirus neutralization [26]: 0.565 µg/mL; IC50, pseudovirus neutralization [27]: 0.055 µg/mL; IC50, pseudovirus neutralization [28]: 0.495 µg/mL; IC50 (µg/mL), pseudovirus neutralization [29]: 0.014 µg/mL; IC50, pseudovirus neutralization [30]: > 50 µg/mL; IC50 (µg/mL), pseudovirus neutralization [31]: 0.051 µg/mL
4838_L06 (PGT-121) (antibody) |  |  |  |  |  |  |  |  |  |  | > 10 |  |  |  |  |  |  |  |  | 0.007 | IC50, pseudovirus neutralization [23]: 0.031 µg/mL; IC50, pseudovirus neutralization [26]: 0.387 µg/mL; IC50, pseudovirus neutralization [27]: 0.005 µg/mL; IC50, pseudovirus neutralization [28]: 0.435 µg/mL; IC50, pseudovirus neutralization [30]: > 50 µg/mL; IC50 (µg/mL), pseudovirus neutralization [31]: 0.167 µg/mL
4877_D15 (PGT-122) (antibody) |  |  |  |  |  |  |  |  |  |  | > 10 |  | > 50 |  | 0.521 |  |  |  |  | 0.013 | IC50, pseudovirus neutralization [23]: 0.068 µg/mL; IC50 (µg/mL), pseudovirus neutralization [25]: 43.7 µg/mL; IC50, pseudovirus neutralization [26]: 2.47 µg/mL; IC50, pseudovirus neutralization [27]: 0.01 µg/mL; IC50, pseudovirus neutralization [28]: 3.79 µg/mL; IC50 (µg/mL), pseudovirus neutralization [29]: 0.028 µg/mL; IC50, pseudovirus neutralization [30]: > 50 µg/mL; IC50 (µg/mL), pseudovirus neutralization [31]: 0.321 µg/mL
1443_C16 (PG16) (TCN-116) (antibody) | 0.31 | 0.43 | 0.01 | 0.0067 | 0.04 | 6.13 | 1.59 | > 50 | 0.26 | 43.6 |  | 5.91 |  | 23.4 |  | 0.127 | 1.13 | > 50 | < 0.0025 |  | 
4E10 (antibody) | 2.61 | 4.94 | 0.91 | > 50 | 5.58 | 7.63 | > 50 | 11 | 2.52 | 0.72 |  | 1.82 |  | 23.5 |  | 1.9 | 6.35 | 10.6 | 4.95 |  | 
2G12 (antibody) | 0.95 | > 50 | 1.5 | > 50 | > 50 | 7.22 | > 50 | > 50 | 1.75 | > 50 |  | > 50 |  | > 50 |  | > 50 | 0.84 | > 50 | 0.75 |  | 
PGV04 (antibody) |  |  |  |  |  |  |  |  |  |  |  |  | 0.879 |  | 0.03 |  |  |  |  |  | IC50 (µg/mL), pseudovirus neutralization [1]: 0.033 µg/mL; IC50 (µg/mL), pseudovirus neutralization [25]: 0.058 µg/mL; IC50 (µg/mL), pseudovirus neutralization [29]: 1.23 µg/mL; IC50 (µg/mL), pseudovirus neutralization [32]: 1.24 µg/mL; IC50 (µg/mL), pseudovirus neutralization [19]: 1.29 µg/mL
b12 (antibody) | > 50 | > 50 | 7.75 | > 50 | > 50 | > 50 | 47.3 | > 50 | 13.3 | 29.3 |  | > 50 |  | > 50 |  | 9.99 | 6.11 | 47 | 0.06 |  | 

Reference: patent publication US20240132578A1
